Here are results for 1 substance from publication PMC7949077.

For orientation: Kd means the equilibrium constant for the complex coming apart.

Test in all cases: SPR
A general note: Surface plasmon resonance follows binding to a sensor surface in real time, without labels.

The subject of series [1] is HuR (ELAVL1). The following applies: HuR alone; SPR: HBS-EP buffer, Biacore T200 SA chip, 1:1 fit. UV crosslinking/EMSA: 2x RNA-binding buffer listed as 5 mM HEPES, 25 mM KCl, 2 mM MgCl2, 2 mM DTT, 0.1 mM ….
The test system of series [2] is La (lupus antigen, SSB);HuR (ELAVL1). The following applies: equimolar La and HuR, same total protein; 1:1 fit; SPR: HBS-EP buffer, Biacore T200 SA chip, 1:1 fit. UV crosslinking/EMSA: 2x RNA-binding buffer listed as 5 mM HEPES, 25 mM KCl, 2 mM MgCl2, 2 mM DTT, 0.1 mM …. (A gel shift assay detects complexes by their altered migration in electrophoresis.)
In series [3] the test system is La (lupus antigen, SSB). The following applies: SPR: HBS-EP buffer, Biacore T200 SA chip, 1:1 fit. UV crosslinking/EMSA: 2x RNA-binding buffer listed as 5 mM HEPES, 25 mM KCl, 2 mM MgCl2, 2 mM DTT, 0.1 mM ….

In the case of PDCD4 3'UTR full length, the Kd in series [1] stood at 42.7 nM; in series [2], 10.5 nM; in series [3] (La alone, first experiment), 27 nM; in series [3] (La alone, second experiment) it was 22 nM; in series [3] (equimolar mix with HuR triple mutant (non-binding), same total protein), 27.5 nM.
